Results taken from the supplement of paper PMC7877785.
± gives the uncertainty stated by the source.

Test: self-splicing fitness, log relative to wild type (ln ratio); higher = more splicing; Tetrahymena group I intron in knt gene, E. coli kanamycin selection, DiMSum; sequences stand for … in CUCUCU…GGAGGGAAAAGUUAUCAGGCAUGCACCUGGUAGCUAGUCUUUAAACCAAUAGAUUGCAUCGGUUUAAAAGGCAAGACCGUCAAAUUGCGGGAAAGGGGUCAACAGCCGUUCAGUACCAAGUCUCAGGGGAAACUUUGAGAUGGCCUUGCAAAGGGUAUGGUAAUAAGCUGACGGACAUGGUCCUAACCACGCAGCCAAGUCCUAAGUCAACAGAUCUUCUGUUGAUAUGGAUGCAGUUCACAGACUAAAUGUCGGUCGGGGAAGAUGUAUUCUUCUCAUAAGAUAUAGUCGGACCUCUCCUUAAUGGGAGCUAGCGGAUGAAGUGAUGCAACACUGGAGCCGCUGGGAACUAAUUUGUAUGCGAAAGUAUAUUGAUUAGUUUUGGAGUACUCGUGGUCG
Procedure, shortened: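 Pooled colonies went to amplicon sequencing on an Illumina HiSeq 2500 after six replicate transformations. The plates were LB agar with 100 μg/mL carbenicillin, 50 μM IPTG and 0.2% rhamnose, with or without 25 μg/mL kanamycin, incubated overnight at 37°C or 30°C. The E. coli BL21(DE3) library had all eight P1ex-region intron nucleotides randomised, the intron placed in the knt kanamycin-resistance gene on pET-22b(+). DiMSum fitness is the error-weighted combination of replicate fold changes, kanamycin against none, normalised to wild type.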

| Sequence | self-splicing fitness (ln) (30 °C) | self-splicing fitness (ln) (37 °C) |
| --- | --- | --- |
| AUGAAGCAAUAUUACGACAU | 0.292 ± 0.012 | 0.49 ± 0.032 |
| AUGAAGCAAUAUUACGACCG | -0.584 ± 0.24 | -0.447 ± 0.27 |
| AUGAAGCAAUAUUACGACUA | 0.0947 ± 0.059 | -0.133 ± 0.059 |
| AUGAAGCAAUAUUACGAGAC | -2.73 ± 0.43 | -1.28 ± 0.47 |
| AUGAAGCAAUAUUACGAGAG | -2.78 ± 0.15 | -0.788 ± 0.1 |
| AUGAAGCAAUAUUACGAGAU | -2.93 ± 0.21 | -1.28 ± 0.21 |
| AUGAAGCAAUAUUACGAGGG | -2.64 ± 0.21 | -2.83 ± 0.28 |
| AUGAAGCAAUAUUACGAGGU | -3.32 ± 0.15 | -2.07 ± 0.18 |
| AUGAAGCAAUAUUACGAUAG | -4.07 ± 0.39 | -2.33 ± 0.32 |
| AUGAAGCAAUAUUACGAUCU | -0.0854 ± 0.072 | 0.317 ± 0.088 |
| AUGAAGCAAUAUUACGAUUU | 0.114 ± 0.062 | 0.345 ± 0.071 |
| AUGAAGCAAUAUUACGCACA | 0.703 ± 0.097 | 0.63 ± 0.14 |
| AUGAAGCAAUAUUACGCAGU | -1.36 ± 0.11 | -0.415 ± 0.11 |
| AUGAAGCAAUAUUACGCCGU | -0.474 ± 0.12 | -0.0165 ± 0.14 |
| AUGAAGCAAUAUUACGCGCG | -0.094 ± 0.087 | -0.808 ± 0.098 |
| AUGAAGCAAUAUUACGCGGG | -1.39 ± 0.11 | -0.785 ± 0.14 |
| AUGAAGCAAUAUUACGGCAG | 0.378 ± 0.086 | -0.115 ± 0.1 |
| AUGAAGCAAUAUUACGGUAG | -2.93 ± 0.17 | -2.03 ± 0.23 |
| AUGAAGCAAUAUUACGGUAU | -0.945 ± 0.066 | -0.484 ± 0.086 |
| AUGAAGCAAUAUUACGUAAA | -1.99 ± 0.09 | -1.27 ± 0.11 |
| AUGAAGCAAUAUUACGUAGG | -2.79 ± 0.16 | -1.25 ± 0.18 |
| AUGAAGCAAUAUUACGUAUC | -4.1 ± 0.24 | -1.99 ± 0.18 |
| AUGAAGCAAUAUUACGUCAG | -0.198 ± 0.057 | 0.134 ± 0.073 |
| AUGAAGCAAUAUUACGUCUG | -0.0483 ± 0.061 | 0.316 ± 0.079 |
| AUGAAGCAAUAUUACGUGGU | -1.71 ± 0.07 | -1.31 ± 0.087 |

| Sequence | self-splicing fitness (ln) (30 °C) | self-splicing fitness (ln) (37 °C) |
| --- | --- | --- |
| AUGAAGCAAUAUUACGUUUC | -4.39 ± 0.2 | -3.03 ± 0.15 |
| AUGCAGCAAUAUUACGAACA | -0.00786 ± 0.13 | 0.392 ± 0.16 |
| AUGCAGCAAUAUUACGACAA | -0.348 ± 0.075 | -0.366 ± 0.093 |
| AUGCAGCAAUAUUACGAGCG | -0.487 ± 0.063 | -0.0426 ± 0.084 |
| AUGCAGCAAUAUUACGAGUU | -3.2 ± 0.11 | -1.39 ± 0.1 |
| AUGCAGCAAUAUUACGAUAG | -2.99 ± 0.19 | -2.57 ± 0.22 |
| AUGCAGCAAUAUUACGCAAC | -2.42 ± 0.18 | -2.58 ± 0.2 |
| AUGCAGCAAUAUUACGCCGA | -1.55 ± 0.14 | -0.543 ± 0.17 |
| AUGCAGCAAUAUUACGCGCG | -0.941 ± 0.1 | -0.349 ± 0.1 |
| AUGCAGCAAUAUUACGCGGU | -4.01 ± 0.21 | -1.85 ± 0.16 |
| AUGCAGCAAUAUUACGCUAC | -3.31 ± 0.21 | -2.38 ± 0.23 |
| AUGCAGCAAUAUUACGGACC | -1.52 ± 0.17 | -0.744 ± 0.17 |
| AUGCAGCAAUAUUACGGGAA | -2.83 ± 0.16 | -1.92 ± 0.14 |
| AUGCAGCAAUAUUACGGGCG | 0.108 ± 0.089 | 0.464 ± 0.11 |
| AUGCAGCAAUAUUACGGGGA | -2.64 ± 0.16 | -2.26 ± 0.18 |
| AUGCAGCAAUAUUACGGUGU | -3.52 ± 0.16 | -1.63 ± 0.14 |
| AUGCAGCAAUAUUACGUAUA | -2.57 ± 0.27 | -1.6 ± 0.16 |
| AUGCAGCAAUAUUACGUCUU | 0.0107 ± 0.076 | 0.303 ± 0.082 |
| AUGCAGCAAUAUUACGUGCA | -2.07 ± 0.1 | -0.922 ± 0.1 |
| AUGCAGCAAUAUUACGUGGA | -3.1 ± 0.29 | -1.73 ± 0.18 |
| AUGCAGCAAUAUUACGUGUC | -3.68 ± 0.18 | -3.18 ± 0.2 |
| AUGCAGCAAUAUUACGUGUU | -4.05 ± 0.16 | -2.66 ± 0.17 |
| AUGCAGCAAUAUUACGUUGA | -2.97 ± 0.14 | -2.41 ± 0.12 |
| AUGGAGCAAUAUUACGAAGU | – | -1.77 ± 0.36 |
| AUGGAGCAAUAUUACGACAA | -1.86 ± 0.22 | -2.46 ± 0.22 |

| Sequence | self-splicing fitness (ln) (30 °C) | self-splicing fitness (ln) (37 °C) |
| --- | --- | --- |
| AUGGAGCAAUAUUACGACGU | -0.474 ± 0.09 | -0.306 ± 0.099 |
| AUGGAGCAAUAUUACGACUA | -1.08 ± 0.14 | -1.33 ± 0.16 |
| AUGGAGCAAUAUUACGACUG | -2.28 ± 0.3 | – |
| AUGGAGCAAUAUUACGAGAA | – | -1.43 ± 0.34 |
| AUGGAGCAAUAUUACGAGAG | – | -2.04 ± 0.23 |
| AUGGAGCAAUAUUACGAGUC | -2.08 ± 0.41 | – |
| AUGGAGCAAUAUUACGAUAU | -1.77 ± 0.12 | -1.17 ± 0.15 |
| AUGGAGCAAUAUUACGAUGG | -2.22 ± 0.29 | -2.47 ± 0.44 |
| AUGGAGCAAUAUUACGAUUC | -2.21 ± 0.3 | – |
| AUGGAGCAAUAUUACGCGAA | -1.66 ± 0.31 | -2.36 ± 0.29 |
| AUGGAGCAAUAUUACGCGAC | -1.94 ± 0.28 | -2.79 ± 0.43 |
| AUGGAGCAAUAUUACGCGCC | – | -1.2 ± 0.34 |
| AUGGAGCAAUAUUACGCGUC | -4.02 ± 0.18 | -2.79 ± 0.15 |
| AUGGAGCAAUAUUACGCUGA | -3.48 ± 0.24 | -3.11 ± 0.35 |
| AUGGAGCAAUAUUACGCUUU | – | -1.37 ± 0.46 |
| AUGGAGCAAUAUUACGGAGU | – | -2.34 ± 0.27 |
| AUGGAGCAAUAUUACGGCAA | -0.0716 ± 0.34 | -3.02 ± 0.47 |
| AUGGAGCAAUAUUACGGCGA | – | -1.68 ± 0.29 |
| AUGGAGCAAUAUUACGGUCG | -2.63 ± 0.18 | -0.839 ± 0.12 |
| AUGGAGCAAUAUUACGUCAC | -3.23 ± 0.37 | – |
| AUGGAGCAAUAUUACGUCGA | -3.25 ± 0.3 | -3.1 ± 0.43 |
| AUGGAGCAAUAUUACGUCGU | -2.38 ± 0.15 | -1.45 ± 0.18 |
| AUGGAGCAAUAUUACGUGCA | -2.82 ± 0.21 | -1.65 ± 0.16 |
| AUGUAGCAAUAUUACGAAGU | -3.07 ± 0.23 | -0.943 ± 0.18 |
| AUGUAGCAAUAUUACGACAA | -0.201 ± 0.091 | 0.171 ± 0.11 |

| Sequence | self-splicing fitness (ln) (30 °C) | self-splicing fitness (ln) (37 °C) |
| --- | --- | --- |
| AUGUAGCAAUAUUACGAUCA | -0.747 ± 0.22 | -0.492 ± 0.18 |
| AUGUAGCAAUAUUACGCAAG | -1.8 ± 0.14 | -0.627 ± 0.14 |
| AUGUAGCAAUAUUACGCCAU | -2.41 ± 0.19 | -2.18 ± 0.24 |
| AUGUAGCAAUAUUACGCGAC | -1.38 ± 0.17 | -1.76 ± 0.36 |
| AUGUAGCAAUAUUACGCGCC | -0.455 ± 0.077 | -0.312 ± 0.096 |
| AUGUAGCAAUAUUACGCUGC | -2.72 ± 0.41 | -2.69 ± 0.48 |
| AUGUAGCAAUAUUACGGAGU | -3.01 ± 0.23 | -1.2 ± 0.18 |
| AUGUAGCAAUAUUACGGCAA | 0.118 ± 0.11 | -0.419 ± 0.12 |
| AUGUAGCAAUAUUACGGCCA | -0.669 ± 0.21 | -0.586 ± 0.22 |
| AUGUAGCAAUAUUACGGCCU | 0.449 ± 0.097 | 0.248 ± 0.12 |
| AUGUAGCAAUAUUACGGCGC | -0.704 ± 0.094 | -0.408 ± 0.12 |
| AUGUAGCAAUAUUACGGGUG | -3.85 ± 0.29 | -2.54 ± 0.18 |
| AUGUAGCAAUAUUACGUAAG | -2.99 ± 0.2 | -2.93 ± 0.2 |
| AUGUAGCAAUAUUACGUACC | -0.724 ± 0.19 | -1.14 ± 0.18 |
| AUGUAGCAAUAUUACGUAGG | -3.93 ± 0.19 | -1.43 ± 0.096 |
| AUGUAGCAAUAUUACGUCUC | – | -2.4 ± 0.3 |
| AUGUAGCAAUAUUACGUGAG | -0.927 ± 0.15 | -0.0873 ± 0.21 |
| AUGUAGCAAUAUUACGUUAC | -4.22 ± 0.39 | -0.607 ± 0.2 |
| AUGUAGCAAUAUUACGUUGG | -2.21 ± 0.12 | -1.8 ± 0.17 |
| AUUAAGCAAUAUUACGACAA | -0.618 ± 0.096 | -0.264 ± 0.11 |
| AUUAAGCAAUAUUACGACAG | -1.91 ± 0.16 | -1.47 ± 0.19 |
| AUUAAGCAAUAUUACGACUG | -2.34 ± 0.2 | -1.64 ± 0.24 |
| AUUAAGCAAUAUUACGAGGU | -2.83 ± 0.24 | -2.1 ± 0.31 |
| AUUAAGCAAUAUUACGAUGG | -3.96 ± 0.37 | -1.94 ± 0.26 |
